# Source: patent US20170088610A1 (RINAT NEUROSCIENCE, published 2017)
# Where a chain is given by its changes, count along the chain named.
# B1: 8L2-6D5 Fab with CDR H3 mutation D109G (Fab, V domains shown)
# VH: QVQLQESGPGLVKPSETLSLTCTVSGFSLIGYDINWIRQPPGKGLEWIGMIWGDGTTDYNSALKSRVTISKDTSKNQFSLKLSSVTAADTAVYYCARGGYYYGTSYYFGYWGQGTLVTVS
# VL: DIQMTQSPSSLSASVGDRVTITCRASQDISNHLNWYQQKPGKAPKLLIYYISRFHSGVPSRFSGSGSGTDFTFTISSLQPEDIATYYCQQSKTLPYTFGQGTKLEIKR
# notes: See note of m8
# B2: 8L2-6D5 Fab with CDR H3 mutation F108W (Fab, V domains shown)
# VH: B1 VH with F108W, G109D
# VL: B1 VL
# notes: See note of m8
# B3: 8L2-6D5 Fab with CDR H3 mutation S105T (Fab, V domains shown)
# VH: B1 VH with S105T, G109D
# VL: B1 VL
# notes: See note of m8
# B4: 8L2-6D5 Fab with CDR H3 mutation Y101W (Fab, V domains shown)
# VH: B1 VH with Y101W, G109D
# VL: B1 VL
# notes: W101 is the E3 residue, so it is kept; See note of m8
# B5: 8L2-6D5 Fab with CDR H3 mutation T104S (Fab, V domains shown)
# VH: B1 VH with T104S, G109D
# VL: B1 VL
# notes: See note of m8; also called T1045 (so in the source)
# B6: 8L2-6D5 Fab with CDR H3 mutation D109N (Fab, V domains shown)
# VH: B1 VH with G109N
# VL: B1 VL
# notes: See note of m8
# B7: 8L2-6D5 Fab with CDR H3 mutation Y100L (Fab, V domains shown)
# VH: B1 VH with Y100L, G109D
# VL: B1 VL
# notes: See note of m8
# B8: 8L2-6D5 Fab with CDR H3 mutation Y100R (Fab, V domains shown)
# VH: B1 VH with Y100R, G109D
# VL: B1 VL
# notes: See note of m8
# B9: 8L2-6D5 Fab with CDR H3 mutation S105A (Fab, V domains shown)
# VH: B1 VH with S105A, G109D
# VL: B1 VL
# notes: See note of m8
# B10: 8L2-6D5 Fab with CDR H3 mutation Y110S (Fab, V domains shown)
# VH: B1 VH with G109D, Y110S
# VL: B1 VL
# notes: See note of m8
# B11: 8L2-6D5 Fab with CDR H3 mutation Y110R (Fab, V domains shown)
# VH: B1 VH with G109D, Y110R
# VL: B1 VL
# notes: See note of m8
# B12: 8L2-6D5 Fab with CDR H3 mutation G103A (Fab, V domains shown)
# VH: B1 VH with G103A, G109D
# VL: B1 VL
# notes: A103 is the E3 residue, so it is kept; See note of m8
# B13: 8L2-6D5 Fab with CDR H3 mutation Y107F (Fab, V domains shown)
# VH: B1 VH with Y107F, G109D
# VL: B1 VL
# notes: See note of m8
# B14: 8L2-6D5 Fab with CDR H3 mutation Y106M (Fab, V domains shown)
# VH: B1 VH with Y106M, G109D
# VL: B1 VL
# notes: See note of m8
# B15: 8L2-6D5 Fab with CDR H3 mutation Y106T (Fab, V domains shown)
# VH: B1 VH with Y106T, G109D
# VL: B1 VL
# notes: See note of m8
# B16: 8L2-6D5 Fab with CDR H3 mutation Y110K (Fab, V domains shown)
# VH: B1 VH with G109D, Y110K
# VL: B1 VL
# notes: See note of m8
# B17: 8L2-6D5 Fab with CDR L3 mutation S91E (Fab, V domains shown)
# VH: B1 VH with G109D
# VL: B1 VL with S91E
# notes: E91 is the E3 residue, so it is kept; See note of m8
# B18: 8L2-6D5 Fab with CDR H3 mutation Y106R (Fab, V domains shown)
# VH: B1 VH with Y106R, G109D
# VL: B1 VL
# notes: See note of m8
# B19: 8L2-6D5 Fab with CDR H3 mutation Y110T (Fab, V domains shown)
# VH: B1 VH with G109D, Y110T
# VL: B1 VL
# notes: See note of m8
# B20: 8L2-6D5 Fab with CDR L3 mutation Y96R (Fab, V domains shown)
# VH: B1 VH with G109D
# VL: B1 VL with Y96R
# notes: See note of m8
# B21: light chain library clone L81 (Fab, V domains shown)
# VH: B1 VH with G109D
# VL: B1 VL with S26F, D28A, H32Q, S56T
# notes: See note of m8
# B22: light chain library clone L208 (Fab, V domains shown)
# VH: B1 VH with G109D
# VL: B1 VL with D28Y, I51T
# notes: See note of m8
# B23: heavy chain library clone H19 (Fab, V domains shown)
# VH: B1 VH with I34L, M50I, L63V, G109D
# VL: B1 VL
# notes: See note of m8
# B24: heavy chain library clone H28 (Fab, V domains shown)
# VH: B1 VH with I34S, N35T, M50S, G109D
# VL: B1 VL
# notes: See note of m8
# B25: heavy chain library clone H109 (Fab, V domains shown)
# VH: B1 VH with I34S, M50I, G109D
# VL: B1 VL
# notes: paired with the CDR-grafted light chain; See note of m8
# B26: heavy chain library clone H227 (Fab, V domains shown)
# VH: B1 VH with N35S, M50Q, A62S, L63V, G109D
# VL: B1 VL
# notes: See note of m8
# B27: heavy chain library clone H9 (Fab, V domains shown)
# VH: B1 VH with I34V, N35S, M50I, A62S, L63V, G109D
# VL: B1 VL
# notes: See note of m8
# B28: heavy chain library clone H222 (Fab, V domains shown)
# VH: B1 VH with I34V, N35T, M50G, L63V, G109D
# VL: B1 VL
# notes: See note of m8
# B29: heavy chain library clone H225 (Fab, V domains shown)
# VH: B1 VH with I34V, N35T, M50G, A62S, L63V, G109D
# VL: B1 VL
# notes: See note of m8
# B30: heavy chain library clone H18 (Fab, V domains shown)
# VH: B1 VH with I34A, N35T, M50G, L63V, G109D
# VL: B1 VL
# notes: See note of m8
# B31: light chain library clone L6 (Fab, V domains shown)
# VH: B1 VH with G109D
# VL: B1 VL with S26F, D28S, H32Q, I51A
# notes: See note of m8
# B32: light chain library clone L97 (Fab, V domains shown)
# VH: B1 VH with G109D
# VL: B1 VL with D28S, H32Q, I51V
# notes: See note of m8
# B33: light chain library clone L129 (Fab, V domains shown)
# VH: B1 VH with G109D
# VL: B1 VL with D28S, H32N, I51T
# notes: paired with the CDR-grafted heavy chain; See note of m8
# B34: H19-L129 template Fab with L_S91E; L_K92K and H_Y101Y; H_G103A (Fab, V domains shown)
# VH: B1 VH with I34L, M50I, L63V, G103A, G109D
# VL: B1 VL with D28S, H32N, I51T, S91E
# notes: See note of m8
# B35: 8L2-6D5 template Fab with L_S91E; L_K92A and H_Y101W; H_G103A (Fab, V domains shown)
# VH: B1 VH with Y101W, G103A, G109D
# VL: B1 VL with S91E, K92A
# notes: See note of m8
# B36: H19-L129 template Fab with L_S91E; L_K92R and H_Y101Y; H_G103A (Fab, V domains shown)
# VH: B1 VH with I34L, M50I, L63V, G103A, G109D
# VL: B1 VL with D28S, H32N, I51T, S91E, K92R
# notes: See note of m8
# Target: T1, human nerve growth factor (human, UniProt P01138 122-241)
# T1 construct: Immobilised on CM5 chips for BIAcore, soluble in neuron survival assays; also called human NGF; hNGF
# Experiment: BIAcore SPR screen, Fab over immobilised human NGF; KD calculated from koff with kon 4e4 M-1s-1
# Description: (§1) A screening BIAcore assay was optimized to determine the affinity of Fab clones from libraries. Supernatants of small culture lysates were injected at […] for 2 min. Dissociation times of 10 to 15 minutes were used for determination of a single exponential dissociation rate (koff) using BIAevaluation software. […] Clones showing improved (slower) koff values were expressed at large scale and full kinetic parameters, kₒₙ and koff, were determined on purified protein.
# (§2) 20-80 clones from each small library were screened using BIAcore analysis as described herein. Samples were simultaneously analyzed by BIAcore for binding affinity to NGF in one channel of the BIAcore chip and for presence of Fab by binding to a penta-histag antibody in another channel of the sensor chip, to detect the his tag at the C terminus of the heavy chain. Clones that expressed protein were classified as having the same affinity, worse affinity, better affinity or no binding, using koff to classify: The results of this analysis are shown in Table 5.
# T1 sequence (P01138 122-241 limits assumed): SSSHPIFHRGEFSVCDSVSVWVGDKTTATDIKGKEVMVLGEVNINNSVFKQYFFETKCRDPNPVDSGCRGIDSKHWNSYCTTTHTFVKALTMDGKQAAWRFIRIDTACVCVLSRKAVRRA
row,Kd,Binder
1,25 nM,B1
2,30 nM,B2
3,16 nM,B3
4,14 nM,B4
5,55 nM,B5
6,37 nM,B6
7,30 nM,B7
8,27 nM,B8
9,13 nM,B9
10,37 nM,B10
11,40 nM,B11
12,4 nM,B12
13,35 nM,B13
14,67 nM,B14
15,50 nM,B15
16,35 nM,B16
17,6 nM,B17
18,40 nM,B18
19,42 nM,B19
20,42 nM,B20

# Target: T1, human nerve growth factor
# Experiment: BIAcore SPR screen, Fab over immobilised human NGF
# Description: as §1
# (§3) For affinity screening experiments, each library was further paired with the corresponding CDR-grafted light or heavy chain (for example, the H1/H2 library was paired with CDR-grafted light chain), the antibody was expressed, and affinity to human NGF of the individual clones was screened using the BIACORE surface plasmon resonance (SPR) system (BIAcore, Inc. Piscataway, N.J.) according to the manufacturer's instructions and as described above. koff, kₒₙ and KD were determined. Antibody clones were ranked based on koff rates, since generally most variation in affinity is seen in koff rates, and further because koff rates are independent of antibody concentration.
row,koff,Binder
1,0.00074 s⁻¹,B21
2,0.00046 s⁻¹,B22
3,0.00024 s⁻¹,B23
4,0.00075 s⁻¹,B24
5,0.00016 s⁻¹,B25
6,0.00054 s⁻¹,B26
7,0.00041 s⁻¹,B27
8,0.00038 s⁻¹,B28
9,0.00038 s⁻¹,B29
10,0.00042 s⁻¹,B30
11,0.00082 s⁻¹,B31
12,0.00056 s⁻¹,B32
13,0.00045 s⁻¹,B33

# Target: T1, human nerve growth factor
# Experiment: BIAcore SPR screen, Fab over immobilised human NGF; KD calculated from koff with kon 4e4 M-1s-1
# Remark: another data set of the same source
# Description: as §1, §3
row,Kd,Binder
1,18 nM,B21
2,11 nM,B22
3,6 nM,B23
4,18.7 nM,B24
5,4 nM,B25
6,13.5 nM,B26
7,10.2 nM,B27
8,9.5 nM,B28
9,9.5 nM,B29
10,10.5 nM,B30
11,20 nM,B31
12,14 nM,B32
13,11 nM,B33

# Target: T1, human nerve growth factor
# Experiment: BIAcore SPR screen, Fab over immobilised human NGF
# Remark: another data set of the same source
# Description: as §1, §2
row,koff,Binder
1,0.001 s⁻¹,B1
2,0.00122 s⁻¹,B2
3,0.00064 s⁻¹,B3
4,0.00056 s⁻¹,B4
5,0.0022 s⁻¹,B5
6,0.0015 s⁻¹,B6
7,0.0012 s⁻¹,B7
8,0.0011 s⁻¹,B8
9,0.00051 s⁻¹,B9
10,0.0015 s⁻¹,B10
11,0.0016 s⁻¹,B11
12,0.00016 s⁻¹,B12
13,0.0014 s⁻¹,B13
14,0.0027 s⁻¹,B14
15,0.002 s⁻¹,B15
16,0.0014 s⁻¹,B16
17,0.00025 s⁻¹,B17
18,0.0016 s⁻¹,B18
19,0.0017 s⁻¹,B19
20,0.0017 s⁻¹,B20

# Target: T1, human nerve growth factor
# Experiment: BIAcore SPR screen, Fab over immobilised human NGF
# Remark: another data set of the same source
# Description: as §1
row,koff,Binder
1,2e-05 s⁻¹,B34
2,0.00055 s⁻¹,B35
3,1.5e-05 s⁻¹,B36

# Target: T1, human nerve growth factor
# Experiment: BIAcore SPR screen, Fab over immobilised human NGF; KD calculated from koff with kon 4e4 M-1s-1
# Remark: another data set of the same source
# Description: as §1
row,Kd,Binder
1,0.5 nM,B34
2,13 nM,B35
3,0.37 nM,B36
